# According to the supplement of paper PMC9112550, “Optimization of the antimicrobial peptide Bac7 by deep mutational scanning” (BMC Biology, 2022):
# Test system: Escherichia coli TOP10
# Test: shrunken log2 fold change of peptide-encoding DNA abundance (4.5 h post-induction vs induction); higher = less antimicrobial activity (less host growth inhibition)
# Conditions: time post-induction: 4.5 h; library: site-saturation at positions 5, 18, 19, 20
# 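Further: peptides expressed intracellularly from a pBAD plasmid library in pooled LB shake-flask culture, induced with 0.3% L-arabinose, DNA abundance read by NGS, three biological replicates, DESeq2 with apeglm shrinkage.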
row,Sequence,shrunken log2 fold change
1,RRIRVRPPRLPRPRPRPATVPRP,-0.154
2,RRIRYRPPRLPRPRPRPVVWPRP,-0.00976
3,RRIRIRPPRLPRPRPRPGTNPRP,-0.314
4,RRIRQRPPRLPRPRPRPIIFPRP,-0.271
5,RRIRARPPRLPRPRPRPHHFPRP,-0.0814
6,RRIRRRPPRLPRPRPRPIYTPRP,-0.176
7,RRIRQRPPRLPRPRPRPKEIPRP,-0.223
8,RRIRWRPPRLPRPRPRPWRTPRP,0.0595
9,RRIRWRPPRLPRPRPRPCWFPRP,0.0945
10,RRIRVRPPRLPRPRPRPGFTPRP,-0.143
11,RRIRHRPPRLPRPRPRPDSTPRP,0.12
12,RRIRHRPPRLPRPRPRPVAMPRP,-0.123
13,RRIRTRPPRLPRPRPRPHYTPRP,-1.01
14,RRIRGRPPRLPRPRPRPSSTPRP,0.446
15,RRIRFRPPRLPRPRPRPLIFPRP,-0.666
16,RRIRERPPRLPRPRPRPQKWPRP,-0.473
17,RRIRDRPPRLPRPRPRPDSAPRP,-0.0433
18,RRIRERPPRLPRPRPRPSKWPRP,-0.241
19,RRIRMRPPRLPRPRPRPNKDPRP,0.0301
20,RRIRHRPPRLPRPRPRPMSEPRP,0.0594
21,RRIRNRPPRLPRPRPRPHRTPRP,-0.827
22,RRIRDRPPRLPRPRPRPRRPPRP,0.652
23,RRIRYRPPRLPRPRPRPVKRPRP,-0.00146
24,RRIRKRPPRLPRPRPRPFQKPRP,0.0267
25,RRIRSRPPRLPRPRPRPAWMPRP,-0.263

row,Sequence,shrunken log2 fold change
1,RRIRGRPPRLPRPRPRPEARPRP,1.54
2,RRIRSRPPRLPRPRPRPELHPRP,0.249
3,RRIRVRPPRLPRPRPRPWFPPRP,-0.641
4,RRIRKRPPRLPRPRPRPIPFPRP,0.347
5,RRIRCRPPRLPRPRPRPRDGPRP,1
6,RRIRLRPPRLPRPRPRPLRSPRP,0.474
7,RRIRERPPRLPRPRPRPNIGPRP,-0.00187
8,RRIRWRPPRLPRPRPRPCTFPRP,-0.72
9,RRIRTRPPRLPRPRPRPEWLPRP,0.203
10,RRIRMRPPRLPRPRPRPIITPRP,-0.512
11,RRIRPRPPRLPRPRPRPNTKPRP,0.0992
12,RRIRSRPPRLPRPRPRPTKDPRP,-0.105
13,RRIRQRPPRLPRPRPRPWFIPRP,-0.302
14,RRIRNRPPRLPRPRPRPTTWPRP,-0.246
15,RRIRSRPPRLPRPRPRPDWGPRP,-0.128
16,RRIRHRPPRLPRPRPRPLGLPRP,0.393
17,RRIRHRPPRLPRPRPRPHIEPRP,0.032
18,RRIRMRPPRLPRPRPRPRVKPRP,0.494
19,RRIRPRPPRLPRPRPRPAVEPRP,0.014
20,RRIRPRPPRLPRPRPRPWNCPRP,-0.134
21,RRIRKRPPRLPRPRPRPGGYPRP,0.61
22,RRIRFRPPRLPRPRPRPPKAPRP,0.332
23,RRIRPRPPRLPRPRPRPRPWPRP,0.212
24,RRIRIRPPRLPRPRPRPCWYPRP,-0.461
25,RRIRPRPPRLPRPRPRPHQHPRP,2.05

row,Sequence,shrunken log2 fold change
1,RRIRPRPPRLPRPRPRPILDPRP,-0.0669
2,RRIRARPPRLPRPRPRPEAMPRP,0.805
3,RRIRVRPPRLPRPRPRPQTCPRP,-0.193
4,RRIRGRPPRLPRPRPRPSMSPRP,0.453
5,RRIRHRPPRLPRPRPRPIPGPRP,-0.158
6,RRIRERPPRLPRPRPRPRTYPRP,-0.517
7,RRIRERPPRLPRPRPRPCSDPRP,-0.5
8,RRIRYRPPRLPRPRPRPHRHPRP,-0.615
9,RRIRQRPPRLPRPRPRPPCTPRP,-0.0301
10,RRIRCRPPRLPRPRPRPNFNPRP,-0.372
11,RRIRNRPPRLPRPRPRPREGPRP,0.187
12,RRIRNRPPRLPRPRPRPAAYPRP,-0.0872
13,RRIRMRPPRLPRPRPRPIHEPRP,-0.301
14,RRIRNRPPRLPRPRPRPHFRPRP,0.0231
15,RRIRERPPRLPRPRPRPFMLPRP,-0.511
16,RRIRERPPRLPRPRPRPWNNPRP,-0.653
17,RRIRIRPPRLPRPRPRPSMGPRP,-0.222
18,RRIRQRPPRLPRPRPRPMEIPRP,-0.0109
19,RRIRDRPPRLPRPRPRPGARPRP,0.863
20,RRIRPRPPRLPRPRPRPGLGPRP,0.389
21,RRIRVRPPRLPRPRPRPWKRPRP,-0.1
22,RRIRCRPPRLPRPRPRPIDRPRP,-0.0643
23,RRIRPRPPRLPRPRPRPLKSPRP,-0.157
24,RRIRRRPPRLPRPRPRPWLAPRP,0.35
25,RRIRHRPPRLPRPRPRPSIGPRP,-0.335
